Experimental data as given in patent US5792742A, “Fibrin-binding peptide fragments of fibronectin” (New York University, priority 1994, dated 1998).
[ ]: non-standard residue; d: D form. pGlu = O=C1CC[C@@H](C(=O)O)N1

Experiments:
[1] = tested on: fibrin; assay: Fibrin-SEPHAROSE affinity chromatography (binding and elution); set-up: species or system bovine
Experimental: Bovine fibrinogen was cross-linked to CNBr-activated SEPHAROSE™ (5 mg/ml beads) according to the manufacturer's instructions. Coupled fibrinogen was subsequently converted to fibrin by incubation with human thrombin to a final concentration of 5 NIH units/ml and 100 K.I. (kallikrein inhibitory) units/ml of aprotinin (in 0.05M Tris-HCI buffer, pH 7.6, containing 0.1M NaCl and 0.01M EDTA) for three hours, at room temperature (Gold, et al. (1983) Biochemistry 22, 4113-4119).
1.0M NaCl in 0.05M tris buffer, pH 8.0.
The fibrin-binding activity of the proteolytically derived 25.9 kDa fragment of Fn was determined by its ability to bind to a fibrin affinity matrix. […] FBB was used to equilibrate and wash the column. Following warming of the column to 22° C., the column was washed with FBB until absorbance at 280 nm (A280) was less than 0.01, and bound protein eluted with 0.05M Tris-HCl, 0.5M NaCl, 6M urea buffer, pH 7.6.
The module (500 μg/1.0 ml) was incubated for 4 hours (while rotating) at 4° C. in the presence of 1.0 ml fibrin-SEPHAROSE™ (5 mg fibrin/ml SEPHAROSE™ beads) equilibrated in […] Tris-HCl, 0.1M NaCl buffer, pH 7.6.
The 11 KDa peptide (50 μg/0.206 ml) was radiolabeled using the IODO-BEAD method (Pierce Chemical). The peptide was added to one IODO-BEAD in the presence of 100 μCi ^125 I (17.4 Ci/mg, New England Nuclear) and incubated on ice for 10 minutes. […]

[2] = tested on: fibrin; assay: ELISA: competitive inhibition of fibronectin binding to fibrin by type 1 recombinant modules; conditions: up to 5,000-50,000 molar excess compared to Fn
Experimental: Fibrin-binding activity was also assessed by an ELISA. Fn was reacted with fibrin-coated microtiter plates and bound Fn was determined by incubation with a polyclonal rabbit anti-Fn antiserum followed by alkaline phosphatase-labeled anti-rabbit Ig. […] Thus, on a mole-per-mole basis, assuming complete attachment of all the fibrinogen applied to the polystyrene plate, total proteolytic conversion to fibrin, and accessibility of the binding sites, 0.8 moles of Fn per mole of fibrin were required to achieve maximum binding (assuming a molecular weight of 340 kDa for the fibrin hexamer and 440 kDa for the Fn dimer).
The recombinant Fn modules were used to inhibit the binding of Fn to the fibrin-coated microtiter plates. […] At this saturating concentration, the binding of Fn to fibrin was inhibited by 70%.

[3] = tested on: fibrin; conditions: 0-10 μM competitor, biotinylated Fn 2.3 nM
Experimental: Since the anti-Fn detection system described for the ELISA above could not be used in Fn competition assays employing the intact Fn molecule or the 25.8 kDa proteolytic fragment, purified Fn was biotinylated using water soluble NHS-LC-Biotin (Pierce Chemm. Co.; according to the manufacturer's instructions) and binding to fibrin detected by alkaline phosphatase conjugated streptavidin (diluted 1/500 in FBBT/BSA) for 1 hour at 22° C., followed by the addition of p-nitrophenyl phosphate, as described above. To ensure that the biotinylation of the Fn had not affected its ability to bind to fibrin, fibrin-binding activity was tested by incubating increasing concentrations of biotinylated Fn (10-300 ng/0.1 ml FBB) with the fibrin-coated wells (200 ng) and detected (see FIG. 28A) using alkaline phosphatase-conjugated streptavidin and the reaction developed as described for Direct Elisa.
To compare the relative fibrin-binding affinities of the ^4 F1.^5 F1 recombinant module pair and the 25.9 kDa proteolytic fragment (^1 F1-^5 F1) with that of the native Fn molecule, these purified proteins were competed with biotinylated plasma Fn for binding to fibrin coated wells and the extent of inhibition of binding assessed by incubation with alkaline phosphatase-conjugated streptavidin. […] Biotinylated Fn (100 ng/0.1 ml FBB: 2.3 nM) was combined with increasing concentrations (0-10 μM) of either unlabeled Fn, the 25.9 kDa proteolytic fragment, or the separate ^4 F1.^5 F1, and ^10 F1 recombinant modules and incubated with the fibrin-coated microtiter wells for 1 hour at 22° C. […] Bound biotinylated Fn was quantitated as described above.

[4] = tested on: fibrin; conditions: Husain et al. 1981; cited from earlier work

Row | % of protein that did not bind to fibrin-Sepharose (unbound fraction) [1] [%] | binding to fibrin-Sepharose [1] | inhibition of the binding of Fn to fibrin (non-binding modules) [2] [%] | inhibition of biotinylated Fn binding (non-fibrin-binding modules) [3] [%] | Molecule | arginine concentration eluting from solid phase fibrin [4] [mM]
1 | ~100 | none was present | < 20 | 15 | ^1 F1.^2 F1: recombinant fibronectin module pair, first and second type 1 modules, amino acids 1-106; negative control (protein, N-terminal pyroglutamate; the major species lacks the NH2-terminal Gln-Ala dipeptide and its new N-terminal Gln is also pyroglutamate, recombinant fibronectin module pair, first and second type 1 modules, amino acids 1-106; negative control) QAQQMVQPQSPVAVSQSKPGCYDNGKHYQINQQWERTYLGNALVCTCYGGSRGFNCESKPEAEETCFDKYTGNTYRVGDTYERPKDSMIWDCTCIGAGRGRISCTI | –
2 | – | – | < 20 | – | ^1 F1: recombinant first type 1 module of fibronectin, amino acids 1-61 (protein, not fully specified; also: major species lacks N-terminal Gln-Ala, its new N-terminal Gln3 is pyroglutamate) [pGlu]AQQMVQPQSPVAVSQSKPGCYDNGKHYQINQQWERTYLGNALVCTCYGGSRGFNCESKPE | –
3 | – | – | – | – | tPA preparation of Husain et al.: high-affinity plasminogen activator preparation of Husain et al. (1981) (protein, UniProt P00750 36-562, looked up) Tissue-type plasminogen …: SYQVICRDEKTQMIYQQHQSWLRPVLRSNRVEYCWCNSGRAQCHSVPVKSCSEPRCFNGGTCQQALYFSDFVCQCPEGFAGKCCEIDTRATCYEDQGISYRGTWSTAESGAECTNWNSSALAQKPYSGRRPDAIRLGLGNHNYCRNPDRDSKPWCYVFKAGKYSSEFCSTPACSEGNSDCYFGNGSAYRGTHSLTESGASCLPWNSMILIGKVYTAQNPSAQALGLGKHNYCRNPDGDAKPWCHVLKNRRLTWEYCDVPSCSTCGLRQYSQPQFRIKGGLFADIASHPWQAAIFAKHRRSPGERFLCGGILISSCWILSAAHCFQERFPPHHLTVILGRTYRVVPGEEEQKFEVEKYIVHKEFDDDTYDNDIALLQLKSDSSRCAQESSVVRTVCLPPADLQLPDWTECELSGYGKHEALSPFYSERLKEAHVRLYPSSRCTSQHLLNRTVTDNMLCAGDTRSGGPQANLHDACQGDSGGPLVCLNDGRMTLVGIISWGLGCGQKDVPGVYTKVTNYLDWIRDNMRP | 0.2
